The text below walks through data of US20260042827A1, “ANTI-WT1 ANTIGEN-BINDING PROTEINS AND USES THEREOF” (UNIVERSITY HEALTH NETWORK, priority 2022, published 2026).

The target of the assay is T1, HLA-DP4 (human), P20036.
T1 chain 1: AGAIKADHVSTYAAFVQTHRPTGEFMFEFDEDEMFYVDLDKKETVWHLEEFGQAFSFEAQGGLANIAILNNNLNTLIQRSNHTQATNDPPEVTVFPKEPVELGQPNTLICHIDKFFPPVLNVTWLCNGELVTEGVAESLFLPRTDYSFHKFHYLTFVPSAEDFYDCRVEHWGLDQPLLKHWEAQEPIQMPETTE
T1 chain 2: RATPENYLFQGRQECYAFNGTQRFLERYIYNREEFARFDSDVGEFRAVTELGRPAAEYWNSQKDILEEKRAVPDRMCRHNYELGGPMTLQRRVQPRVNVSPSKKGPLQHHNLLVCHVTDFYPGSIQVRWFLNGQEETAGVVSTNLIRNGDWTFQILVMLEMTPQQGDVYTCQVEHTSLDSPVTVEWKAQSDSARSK
Briefly: competition. The settings on record: modification not given.

With PGCNARYFKLSHLQMHSRKHT [332A], the IC50 turned out to be 4.74 mM.
PGCNKRYFKLSHLQMHSAKHT [345A] yielded an IC50 of 9.37 mM.
PGCNKRYFKLSHLAMHSRKHT [341A] gave an IC50 of 8.51 mM.
The figure for PGCAKRYFKLSHLQMHSRKHT [331A] is 7.46 mM; for PGCNKAYFKLSHLQMHSRKHT [333A] it is 0.3 mM; for PACNKRYFKLSHLQMHSRKHT [329A] it is 5.44 mM.

For orientation: IC50 means the midpoint of a concentration-inhibition curve. The low end stands for higher potency, the high end for lower potency.
